Source: publication PMC5435687 (Scientific Reports, 2017)

Legend:
[1] = SDS-PAGE of peptide solutions, band quantification (monomer fraction); format: physicochemical; conditions: 1 µM HF488-labelled peptide in cell culture medium after HFIP pre-treatment; NuPAGE 4–12% Bis-Tris gel, fluorescence scan, ImageJ
Procedure: The lyophilized Aβ peptide powders were dissolved in hexafluoro-2-propanol to disrupt any aggregates[26] and monomerize the peptide. The solutions were vortexed briefly and aliquoted at 4 °C. The solvent in each aliquot was evaporated at 37 °C for 60 min using a RVC 2–18 CD Rotational Vacuum concentrator (Martin Christ, Germany). The remaining peptide films were snap frozen in liquid nitrogen and kept at −80 °C until further use. For concentration determinations the peptide film was dissolved in 1% ammonium hydroxide (v/v) and the absorption of the dye label was measured on a Cary 4000 UV-Vis Spectrophotometer (Agilent Technologies, Santa Clara, CA, US). Extinction coefficients of 70,000 M^−1cm^−1 at 504 nm and 250 000 M^−1cm^−1 at 649 nm was used for the HF488 and HF647 dye labels, respectively, according to the information provided by the manufacturer. Prior to each experiment one peptide film was dissolved in a small volume 1% ammonium hydroxide (v/v) and diluted with cell culture medium supplemented with 30 mM HEPES. […] The HF488 dye was excited by a 488 nm laser and emission detected through a 520/40 nm filter. After background correction, the gel bands corresponding to monomer, dimer and trimer species were quantified in ImageJ (NIH, Bethesda, Maryland, US) by integrated intensity of the respective bands.

[2] = system: SH-SY5Y cells transfected with AP180-C; assay: Uptake in cells overexpressing AP180-C; format: cell-based, human; conditions: SH-SY5Y 24 h post transfection; HF488-labelled Aβ 1 µM 1 h or AF647-Trf 5 µg/ml 5 min; low and high mRFP gates; N = 2, n = 2–4
Procedure: Flow cytometry was used to quantify cellular uptake. The samples were washed in serum free medium (1x for experiments including only Aβ and 3x for experiments with Trf) prior to incubation with Aβ peptides and/or other reagents in serum free medium supplemented with 30 mM HEPES and 2% B-27. For experiments including Trf B-27 was omitted, as outlined above. Prior to analysis, the cells were washed 1x (for experiments including only Aβ) or 3x (for experiments including Aβ and dextran 10 kDa or Trf) in serum free medium, detached by trypsin-EDTA for 10 min followed by addition of FBS-supplemented cell culture medium to inhibit further proteolytic degradation. All samples were kept on ice until they were analysed on a Guava EasyCyte 8HT (Millipore, Darmstadt, Germany) that automatically retrieves samples from a 96-well plate. In order to exclude effects due to difference in delay time we used mixed order of analysis, loading only a few samples at a time with the remaining samples kept on ice. The cell counting gate was determined using propidium iodide (0.5 µM, not washed away prior to analysis) and calcein-AM (10 nM, 15 min staining) to distinguish live and dead cells, and for each sample 5,000 cells from within the live gate were counted and analysed. HF488, AlexaFluor488, EGFP and calcein-AM were excited by a 488 nm laser and their fluorescence was detected through a 525/30 nm filter. Propidium iodide and mRFP were excited by the 488 nm laser but detected through a 692/46 nm filter. HF647 and AlexaFluor647 were excited with a 635 nm laser and detected through a 661/19 nm filter. Compensation was performed to adjust for bleed through in experiments including mRFP. Mean cellular uptake was estimated as the average fluorescence intensity of all cells gated within the live region and all individual experiments were performed with three technical replicates (n = 3) unless else is stated. The average fluorescence intensity was baseline corrected by subtracting the signal for unstained cells. […]

| Substance | monomer fraction by SDS-PAGE band intensities [1] | uptake in AP180-C transfected cells compared to non-transfected cells [2] |
| --- | --- | --- |
| Aβ(1–40): Synthetic 40 residue amyloid-β peptide conjugated to HiLyte Fluor HF488 (or HF647) at the N-terminus, from Anaspec | 84% | neither Aβ(1–40) nor Aβ(1–42) uptake was affected |
| Aβ(1–42): Synthetic 42 residue amyloid-β peptide conjugated to HiLyte Fluor HF488 (or HF647) at the N-terminus, from Anaspec | 86% | small but statistically significant increase |
